Assay results as given in IntAct's records for PubMed 10646860.

B1: Apoptosis-stimulating of p53 protein 2 (Homo sapiens), Q13625 (parent)
chain: MMPMFLTVYLSNNEQHFTEVPVTPETICRDVVDLCKEPGESDCHLAEVWCGSERPVADNERMFDVLQRFGSQRNEVRFFLRHERPPGRDIVSGPRSQDPSLKRNGVKVPGEYRRKENGVNSPRMDLTLAELQEMASRQQQQIEAQQQLLATKEQRLKFLKQQDQRQQQQVAEQEKLKRLKEIAENQEAKLKKVRALKGHVEQKRLSNGKLVEEIEQMNNLFQQKQRELVLAVSKVEELTRQLEMLKNGRIDSHHDNQSAVAELDRLYKELQLRNKLNQEQNAKLQQQRECLNKRNSEVAVMDKRVNELRDRLWKKKAALQQKENLPVSSDGNLPQQAASAPSRVAAVGPYIQSSTMPRMPSRPELLVKPALPDGSLVIQASEGPMKIQTLPNMRSGAASQTKGSKIHPVGPDWSPSNADLFPSQGSASVPQSTGNALDQVDDGEVPLREKEKKVRPFSMFDAVDQSNAPPSFGTLRKNQSSEDILRDAQVANKNVAKVPPPVPTKPKQINLPYFGQTNQPPSDIKPDGSSQQLSTVVPSMGTKPKPAGQQPRVLLSPSIPSVGQDQTLSPGSKQESPPAAAVRPFTPQPSKDTLLPPFRKPQTVAASSIYSMYTQQQAPGKNFQQAVQSALTKTHTRGPHFSSVYGKPVIAAAQNQQQHPENIYSNSQGKPGSPEPETEPVSSVQENHENERIPRPLSPTKLLPFLSNPYRNQSDADLEALRKKLSNAPRPLKKRSSITEPEGPNGPNIQKLLYQRTTIAAMETISVPSYPSKSASVTASSESPVEIQNPYLHVEPEKEVVSLVPESLSPEDVGNASTENSDMPAPSPGLDYEPEGVPDNSPNLQNNPEEPNPEAPHVLDVYLEEYPPYPPPPYPSGEPEGPGEDSVSMRPPEITGQVSLPPGKRTNLRKTGSERIAHGMRVKFNPLALLLDSSLEGEFDLVQRIIYEVDDPSLPNDEGITALHNAVCAGHTEIVKFLVQFGVNVNAADSDGWTPLHCAASCNNVQVCKFLVESGAAVFAMTYSDMQTAADKCEEMEEGYTQCSQFLYGVQEKMGIMNKGVIYALWDYEPQNDDELPMKEGDCMTIIHREDEDEIEWWWARLNDKEGYVPRNLLGLYPRIKPRQRSLA

Variants of: B1
Details: with apcl_human APC2, O95996
apcl_human APC2, O95996, sequence (O95996 whole entry): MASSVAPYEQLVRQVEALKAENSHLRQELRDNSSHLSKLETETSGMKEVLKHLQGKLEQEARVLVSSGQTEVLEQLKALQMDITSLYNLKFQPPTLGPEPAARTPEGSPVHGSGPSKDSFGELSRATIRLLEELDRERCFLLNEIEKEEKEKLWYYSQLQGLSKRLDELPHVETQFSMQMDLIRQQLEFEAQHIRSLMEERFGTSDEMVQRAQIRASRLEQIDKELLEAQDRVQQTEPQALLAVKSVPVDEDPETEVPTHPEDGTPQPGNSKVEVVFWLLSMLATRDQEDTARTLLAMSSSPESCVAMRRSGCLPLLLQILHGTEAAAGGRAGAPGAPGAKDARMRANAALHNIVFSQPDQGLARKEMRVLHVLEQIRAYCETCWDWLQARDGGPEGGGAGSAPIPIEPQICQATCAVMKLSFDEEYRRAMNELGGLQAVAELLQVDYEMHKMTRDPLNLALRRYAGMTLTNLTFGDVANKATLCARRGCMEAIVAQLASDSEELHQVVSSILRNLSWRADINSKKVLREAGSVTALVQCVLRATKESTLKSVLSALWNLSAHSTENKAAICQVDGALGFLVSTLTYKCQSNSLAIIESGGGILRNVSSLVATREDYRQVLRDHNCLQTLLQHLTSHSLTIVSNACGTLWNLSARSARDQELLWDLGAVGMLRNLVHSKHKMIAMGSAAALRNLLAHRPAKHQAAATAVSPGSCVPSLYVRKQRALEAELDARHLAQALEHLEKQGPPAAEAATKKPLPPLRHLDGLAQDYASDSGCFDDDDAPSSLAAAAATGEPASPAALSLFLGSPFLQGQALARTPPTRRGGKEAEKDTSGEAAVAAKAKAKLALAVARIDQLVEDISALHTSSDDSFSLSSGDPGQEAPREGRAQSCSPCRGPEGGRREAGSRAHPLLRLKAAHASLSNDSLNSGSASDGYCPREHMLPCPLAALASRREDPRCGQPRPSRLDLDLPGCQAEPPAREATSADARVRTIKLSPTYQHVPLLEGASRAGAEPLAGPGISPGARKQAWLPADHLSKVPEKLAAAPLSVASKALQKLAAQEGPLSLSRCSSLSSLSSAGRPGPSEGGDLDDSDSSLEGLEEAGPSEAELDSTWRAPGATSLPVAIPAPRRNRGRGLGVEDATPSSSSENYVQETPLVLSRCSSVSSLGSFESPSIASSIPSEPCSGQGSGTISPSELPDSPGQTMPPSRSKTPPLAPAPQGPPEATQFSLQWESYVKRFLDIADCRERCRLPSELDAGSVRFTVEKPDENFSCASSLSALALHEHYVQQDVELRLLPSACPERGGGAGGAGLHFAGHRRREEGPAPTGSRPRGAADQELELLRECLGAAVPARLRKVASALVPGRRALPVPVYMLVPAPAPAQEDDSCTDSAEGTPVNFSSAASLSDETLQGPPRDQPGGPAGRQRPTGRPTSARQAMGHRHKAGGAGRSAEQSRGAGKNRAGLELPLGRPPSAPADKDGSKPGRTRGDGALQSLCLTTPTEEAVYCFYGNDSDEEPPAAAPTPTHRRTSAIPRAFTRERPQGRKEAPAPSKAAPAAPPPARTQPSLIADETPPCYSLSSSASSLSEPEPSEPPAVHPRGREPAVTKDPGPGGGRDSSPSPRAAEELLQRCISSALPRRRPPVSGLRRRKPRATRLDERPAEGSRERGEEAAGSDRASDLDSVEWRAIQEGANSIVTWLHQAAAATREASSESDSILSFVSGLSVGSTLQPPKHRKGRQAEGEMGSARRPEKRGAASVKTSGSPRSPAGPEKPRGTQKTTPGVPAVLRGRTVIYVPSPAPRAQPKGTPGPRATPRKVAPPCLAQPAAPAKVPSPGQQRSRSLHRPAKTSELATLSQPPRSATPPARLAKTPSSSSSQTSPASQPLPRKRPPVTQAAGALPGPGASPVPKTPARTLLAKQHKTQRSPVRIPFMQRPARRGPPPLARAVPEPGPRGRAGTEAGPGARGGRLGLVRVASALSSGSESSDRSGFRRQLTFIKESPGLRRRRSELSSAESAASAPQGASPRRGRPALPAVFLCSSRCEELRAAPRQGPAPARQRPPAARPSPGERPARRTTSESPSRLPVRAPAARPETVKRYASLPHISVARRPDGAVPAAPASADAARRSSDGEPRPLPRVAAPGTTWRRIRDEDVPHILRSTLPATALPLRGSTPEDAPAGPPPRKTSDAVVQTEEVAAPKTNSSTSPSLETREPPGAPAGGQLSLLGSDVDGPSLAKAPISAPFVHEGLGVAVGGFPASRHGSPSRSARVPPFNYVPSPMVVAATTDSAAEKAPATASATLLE

| Variant | effect of a mutation on the interaction |
| --- | --- |
| W1098K | disrupting interaction strength |
